The record followed here is patent US20260274993A1 (HUMMINGBIRD BIOSCIENCE PTE, published 2026).

In assay [1] the target is T1, Tabalumab mutant FR1.
T1 construct: also called Taba FR1
The experiment in a line: flow cytometry, EC50 of % parent (FITC), CHO cells expressing tabalumab mutant FR1 (TABA FR1); curve in FIG. 2A levels at only about 15 % parent.
Procedure: (§1) FACS was performed according to standard protocols. Briefly, cells were assayed in PBS with 0.5% BSA and 2 mM EDTA. […] Following this, cells were incubated with a secondary anti-mouse FITC antibody for 30 mins at 4° C. FITC readout was measured by FACS on a benchtop flow cytometer.

Assay [2] deals with T2, 3A6 mutant FR1.
T2 construct: also called 3A6 FR1; 3A6-FR1 (VH4-34 FR1 mutant)
The experiment in a line: flow cytometry, EC50 of % parent (FITC), CHO cells expressing 3A6 mutant FR1 (3A6 FR1); curve in FIG. 2A reaches about 95 % parent. In general terms: Flow cytometry measures light scatter and fluorescence of single cells or particles in a stream.
Procedure: as §1

Assay [3] concerns the target T3, antibodies containing VH4-34 endogenously expressed by cell line OCI-Ly3.
T3 construct: Whole, on cells; also called VH4-34-expressing cell line OCI-Ly3
The experiment in a line: flow cytometry, EC50 of % parent (PE), OCI-Ly3 cells endogenously expressing VH4-34; curve in FIG. 4A reaches only about 40 % parent.
Procedure: FACS was performed according to standard protocols. Briefly, cells were assayed in PBS with 0.5% BSA and 2 mM EDTA. Live dead staining was performed with a live dead cell dye for 15 minutes at 4° C. […] Following this, cells were incubated with a secondary PE goat anti-mouse IgG for 30 mins at 4° C. and PE readout was measured.

Assay [4] concerns the target T4, 3A6.
T4 construct: also called 3A6 antibody (containing VH4-34 antigen); 3A6 (VH4-34 antigen)
Briefly: flow cytometry, EC50 of % parent (FITC), CHO cells overexpressing surface 3A6.
Procedure: as §1

The target in assay [5] is T5, zanolimumab.
T5 construct: VH4-34-containing antibody used as the antigen, overexpressed on the surface of CHO cells; also called Zano.hIgG1
T5 sequence (VH, as listed by the source, chain 1 of 2): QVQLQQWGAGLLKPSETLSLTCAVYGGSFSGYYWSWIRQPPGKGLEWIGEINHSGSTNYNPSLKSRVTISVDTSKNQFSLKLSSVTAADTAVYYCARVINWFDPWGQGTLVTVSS
T5 sequence (VL, as listed by the source, chain 2 of 2): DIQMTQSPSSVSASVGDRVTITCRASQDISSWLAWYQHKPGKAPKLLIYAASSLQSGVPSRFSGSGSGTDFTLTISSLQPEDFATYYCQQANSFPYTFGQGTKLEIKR
Briefly: flow cytometry, EC50 of % parent (FITC), CHO cells overexpressing surface zanolimumab (ZANO).
Procedure: as §1

The target in assay [6] is T6, Zanolimumab mutant FR1.
T6 construct: also called Zano FR1
T6 sequence (VH, as listed by the source, chain 1 of 2): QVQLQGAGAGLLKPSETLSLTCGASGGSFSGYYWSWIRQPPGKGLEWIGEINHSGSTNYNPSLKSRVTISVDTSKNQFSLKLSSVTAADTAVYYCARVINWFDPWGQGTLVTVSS
Briefly: flow cytometry, EC50 of % parent (FITC), CHO cells expressing zanolimumab mutant FR1 (ZANO FR1); curve in FIG. 2A reaches about 95 % parent.
Procedure: as §1

Assay [7] addresses tabalumab. Briefly: flow cytometry, EC50 of % parent (FITC), CHO cells overexpressing surface tabalumab (TABA).
Procedure: as §1
Assay [8] has as its target T4, 3A6. The experiment in a line: flow cytometry, EC50 of % parent (FITC), CHO cells overexpressing surface 3A6. The source holds these as a separate data set.
Procedure: (§2) For FACS evaluation, cells were assayed in PBS with 0.5% BSA and 2 mM EDTA. […] Cells were incubated with a secondary anti-mouse FITC antibody for 20 mins at 4° C. FITC readout was measured by FACS.
Assay [9] concerns the target T5, zanolimumab. The experiment in a line: flow cytometry, EC50 of % parent (FITC), CHO cells overexpressing surface zanolimumab (Zano).
Procedure: as §2
Assay [10] has as its target tabalumab. The experiment in a line: flow cytometry, EC50 of % parent (FITC), CHO cells overexpressing surface tabalumab (Taba).
Procedure: as §2
The target of assay [11] is T1, Tabalumab mutant FR1. The experiment in a line: flow cytometry, % parent (FITC), CHO cells expressing tabalumab mutant FR1.
Procedure: as §2
Assay [12] has as its target T6, Zanolimumab mutant FR1. Briefly: flow cytometry, % parent (FITC), CHO cells expressing zanolimumab mutant FR1.
Procedure: as §2
Assay [13] addresses T2, 3A6 mutant FR1. Briefly: flow cytometry, % parent (FITC), CHO cells expressing 3A6 mutant FR1.
Procedure: as §2
The target of assay [14] is T3, antibodies containing VH4-34 …. Briefly: flow cytometry, EC50 of % parent, OCI-Ly3 cells endogenously expressing VH4-34.
Procedure: (§3) Binding was assessed by FACS. Briefly, cells were assayed in PBS with 0.5% BSA and 2 mM EDTA. Live dead staining was performed with a live dead cell dye for 15 minutes at 4° C. […] Following this, cells were incubated with a secondary PE goat anti-mouse IgG (1:300) for 30 mins at 4° C. and PE readout was measured.
The target in assay [15] is tabalumab. Briefly: flow cytometry (geomean MFI), CHO cells overexpressing the surface antibody.
Chain of tabalumab (VH, as listed by the source, chain 1 of 2): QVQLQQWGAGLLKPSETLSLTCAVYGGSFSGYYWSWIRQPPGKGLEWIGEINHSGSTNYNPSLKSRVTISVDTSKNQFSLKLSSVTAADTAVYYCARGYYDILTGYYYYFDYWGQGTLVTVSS
Chain of tabalumab (VL, as listed by the source, chain 2 of 2): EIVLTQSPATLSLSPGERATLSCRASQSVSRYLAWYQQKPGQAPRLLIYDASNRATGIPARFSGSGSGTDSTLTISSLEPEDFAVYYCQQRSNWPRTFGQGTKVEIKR
The target in assay [16] is T5, zanolimumab. The description is as above.
The target of assay [17] is T4, 3A6. The description is as above.
T4 sequence (VH, as listed by the source, chain 1 of 2): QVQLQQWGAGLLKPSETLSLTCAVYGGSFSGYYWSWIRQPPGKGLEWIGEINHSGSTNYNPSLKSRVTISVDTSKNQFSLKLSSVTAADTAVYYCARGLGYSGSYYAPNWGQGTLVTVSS
T4 sequence (VL, as listed by the source, chain 2 of 2): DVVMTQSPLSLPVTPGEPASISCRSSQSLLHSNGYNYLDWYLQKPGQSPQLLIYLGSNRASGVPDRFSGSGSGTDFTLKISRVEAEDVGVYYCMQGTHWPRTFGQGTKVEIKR
The target of assay [18] is T3, antibodies containing VH4-34 …. The experiment in a line: flow cytometry, EC50 of MFI, OCI-Ly3 cells endogenously expressing VH4-34.
Procedure: as §3
In assay [19] the target is T4, 3A6. Briefly: ELISA, human IgG1 antigen captured on anti-human IgG Fc.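 Further: humanized antibodies bound to human IgG1 antigen captured at 1 µg/ml on anti-human IgG Fc plates, detected with anti-mouse IgG Fc/HRP, VSTB112 serving as negative control protein.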 Background: ELISA stands for enzyme-linked immunosorbent assay.
Procedure: (§4) The binding affinity of each humanized antibody for 3A6 antibody (containing VH4-34 antigen), 3A6-FR1 (VH4-34 FR1 mutant) and VSTB112 (negative control protein) was evaluated.
(§5) Plates were coated with 1 ug/ml of anti-human IgG Fc overnight at 4° C. Plates were washed thrice with PBS/0.05% Tween (PBST) before blocking with 5% BSA for 1 h at room temp (RT). Plates were then washed again before addition of 1 μg/ml of 3A6 (VH4-34 antigen), 3A6-FR1 (VH4-34 FR1 mutant) or VSTB112 (negative control protein) human IgG1 proteins. Plates were washed thrice. […] After washing the plates, anti-mouse IgG Fc/HRP diluted 1:5000 in 1% BSA was added and incubated for 1 h at RT. Plates were washed before detection using 1-step ELISA substrate.
Assay [20] concerns the target T2, 3A6 mutant FR1. The assay is described as above.
Procedure: as §4, §5
Assay [21] concerns the target T3, antibodies containing VH4-34 …. Briefly: cell-based or functional assay.
In assay [22] the target is tabalumab. Briefly: cell-based or functional assay.
Assay [23] concerns the target T5, zanolimumab. Briefly: cell-based or functional assay.

T1 sequence (VH, as listed by the source, chain 1 of 2): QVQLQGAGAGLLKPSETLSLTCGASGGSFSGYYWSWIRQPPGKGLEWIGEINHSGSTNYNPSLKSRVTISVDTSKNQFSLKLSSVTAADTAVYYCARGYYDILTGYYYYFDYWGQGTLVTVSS
T2 sequence (VH, as listed by the source, chain 1 of 2): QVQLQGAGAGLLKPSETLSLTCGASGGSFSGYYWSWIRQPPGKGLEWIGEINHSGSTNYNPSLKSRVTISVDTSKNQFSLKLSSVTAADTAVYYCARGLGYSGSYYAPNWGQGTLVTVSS

B1: D011-6040 (antibody, human IgG1, kappa, V domains shown)
VH: EVQLQQSGAEFVRSGASVKLSCTASGFNIKDYYMHWVKQRPEQGLDWIGWIDPENGDADYDPKFQGKATMTADTSSNTAYLHLSSLTSEDAAVYYCNACHYYGYEDAMDYWGQGTSVTVSS
VL: DIQMTQSPSSLSASLGERVSLTCRASQEISGYLSWLQQKPDGTIKRLIYAASTLDSGVPKRFSGSRSGSDYSLTISSLESEDFADYYCLQYAGYPRTFGGGTRLEIKR
notes: also called [3]; D011-6040.IgG2a
For orientation: EC50 means the concentration giving half of the maximal effect. Regarding B1, the EC50 came out at 3930 pM in [1]; 4800 pM in assay [2]; 661 pM in assay [3]; 8.95 pM in assay [4]; 4.3 pM in [5]; 821 pM in assay [6]. Also, in assay [7], the EC50 was 5.87 pM.

B2: D011-7016-LD1.IgG2a (antibody, V domains shown)
VH: EVQLVESGPSLVKPSQTLSLICSVTGDAITSGYWNWVRKFPGNKLEYMGYISYSGSAHYNPSLKSRISITRDTSKNQYYLQLNSMTTEDTATYYCASYSFAYWGQGTLVTVSA
VL: DIVMTQSPATLSVTPGDSVSLSCRAQQSIDNQLHWYQQRSHESPRLLINYASQSISGIPSRFSGSGSGTDFTLSISSVETEDFGMYFCQQSYGWPYTFGGGTKLEIKR
For the molecule B2, the EC50 in [8] is 10.4 pM; in [9], 10.5 pM; in assay [10] it was 8.63 pM. For the same molecule, the binding result in [11], in [12] and in assay [13] was “no binding (tested: Log M about -8.1 (about 8e-9 M))” each time.

B3: D011-7016-LD2.IgG2a (antibody, V domains shown)
VH: EVQLVESGPSLVKPSQTLSLICSVTGDAITSGYWNWVRKFPGNKLEYMGYISYSGSAHYNPSLKSRISITRDTSKNQYYLQLNSMTTEDTATYYCASYSFAYWGQGTLVTVSA
VL: DIVMTQSPATLSVTPGDSVSLSCRASQSIDNQLHWYQQRSHESPRLLINYASQSISGIPSRFSGSGSGTDFTLSISSVETEDFGMYFCQQSYGWPYTFGGGTKLEIKR
notes: also called [8]
Regarding B3, the concentration giving a half-maximal response (EC50) came to 9.09 pM in assay [8]; 8.92 pM in [9]; 6.88 pM in assay [10]; 4.77 pM in assay [14]; 280 pM in assay [15]; 692 pM in assay [16]. Also, the EC50 is 519 pM in assay [17], 243 pM in assay [18] and 25.4 pM in [19]. Moreover, the binding result in [11], in assay [12] and in assay [13] was “no binding (tested: Log M about -8.1 (about 8e-9 M))” each time.

B4: D011-7016-LD2 H0/L0 IgG2a (antibody, V domains shown)
VH: QVQLQESGPGLVKPSETLSLTCTVSGDAITSGYWNWIRQPPGKGLEYMGYISYSGSAHYNPSLKSRITISRDTSKNQYSLKLSSVTAADTAVYYCASYSFAYWGQGTLVTVSS
VL: EIVMTQSPDFQSVTPKEKVTITCRASQSIDNQLHWYQQKPDQSPKLLINYASQSISGVPSRFSGSGSGTDFTLTISSLEAEDAATYYCQQSYGWPYTFGQGTKLEIKR
Turning to B4, the EC50 stood at 3.84 pM in [14]; 376 pM in [15]; 453 pM in [16]; 605 pM in assay [17]; 271 pM in assay [18]; 36.9 pM in [19]. The binding result in assay [20] is “no binding (tested: 1 µg/ml (highest concentration))”.

B5: D011-7016-LD2 H5/L1 IgG2a (antibody, V domains shown)
VH: QVQLQESGPGLVKPSQTLSLTCTVSWDAITSGYWNWVRQHPGNKLEYMGYISYSGSAHYNPSLKSRITISRDTSKNQYSLKLSSVTAADTAVYYCASYSFAYWGQGTLVTVSS
VL: DIVMTQSPPSLSVTPGEPASLSCRASQSIDNQLHWYLQKPGQSPQLLINYASQSISGVTDRFSGSGSGTDFTLKISRVEAEDVGVYFCQQSYGWPYTFGGGTKVEIKR
Take B5: the EC50 in assay [14] was found to be 4.7 pM; in assay [15], 313 pM; in assay [16], 645 pM; in assay [17], 590 pM; in [18], 308 pM; in assay [19], 29.5 pM. For the same molecule, the binding result in assay [20] is on record as “no binding (tested: 1 µg/ml (highest concentration))”.

B6: D011-7016-LD2 H5/L2 IgG2a (antibody, V domains shown)
VH: QVQLQESGPGLVKPSQTLSLTCTVSWDAITSGYWNWVRQHPGNKLEYMGYISYSGSAHYNPSLKSRITISRDTSKNQYSLKLSSVTAADTAVYYCASYSFAYWGQGTLVTVSS
VL: DIVMTQSPPSLSVTPGESASISCRASQSIDNQLHWYLQKPGQSPQLLINYASQSISGVTDRFSGSGSGTDFTLKISRVEAEDVGMYFCQQSYGWPYTFGGGTKVEIKR
B6: the 50% effective concentration (EC50) is 4.38 pM in assay [14]; 284 pM in assay [15]; 650 pM in [16]; 590 pM in assay [17]; 281 pM in [18]; 43.2 pM in [19]. In addition, the binding result in assay [20] was “no binding (tested: 1 µg/ml (highest concentration))”.

B7: D011-7016-LD2 H4/L2 IgG2a (antibody, V domains shown)
VH: QVQLQESGPGLVKPSETLSLTCTVSWDAITSGYWNWVRQPPGNKLEYMGYISYSGSAHYNPSLKSRITISRDTSKNQYSLKLSSVTAADTAVYYCASYSFAYWGQGTLVTVSS
VL: DIVMTQSPPSLSVTPGESASISCRASQSIDNQLHWYLQKPGQSPQLLINYASQSISGVTDRFSGSGSGTDFTLKISRVEAEDVGMYFCQQSYGWPYTFGGGTKVEIKR
Turning to B7, the EC50 in [14] amounted to 4.28 pM; in assay [18] it was 330 pM; in assay [19], 53.2 pM. Besides, in assay [20], the binding result is “no binding (tested: 1 µg/ml (highest concentration))”.

B8: D011-7016.hIgG1 (antibody)
heavy: not shown
light: DIVMTQSPATLSVTPGDSVSLSCRANQSIDNNLHWYQQRSHESPRLLINYASQSISGIPSRFSGSGSGTDFTLSISSVETEDFGMYFCQQSYGWPYTFGGGTKLEIKRTVAAPSVFIFPPSDEQLKSGTASVVCLLNNFYPREAKVQWKVDNALQSGNSQESVTEQDSKDSTYSLSSTLTLSKADYEKHKVYACEVTHQGLSSPVTKSFNRGEC
For the molecule B8, in [21], the “EC50 of ADCP (% CFSE of CD14+ cells), M0 macrophages with CFSE-labelled OCI-Ly3 target cells” value came to 61.5 pM. The “EC50 of ADCC reporter luminescence (RLU), Jurkat Lucia NFAT-CD16 effector cells with tabalumab-expressing CHO target cells” value in assay [22] was determined as 1020 pM. For the same molecule, in [23], the “EC50 of ADCC reporter luminescence (RLU), Jurkat Lucia NFAT-CD16 effector cells with zanolimumab-expressing CHO target cells” value is 1090 pM.
